One molecule from US20160138004A1 (Hoffmann-La Roche, published 2016) can be followed below.

The target in assay [1] is T1, Thermus thermophilus SlyD-IGF-1(74-90) fusion polypeptide.
T1 construct: also called Thermo Thermophilus SlyD-IGF-1 fusion polypeptide; Thermus thermophilus-IGF-1 fusion polypeptide
T1 chain: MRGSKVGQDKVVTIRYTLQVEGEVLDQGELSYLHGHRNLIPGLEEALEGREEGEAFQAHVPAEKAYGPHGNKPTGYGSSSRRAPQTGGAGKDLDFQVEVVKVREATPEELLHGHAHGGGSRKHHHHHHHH
Kind of assay: ELISA, clone culture supernatant.

Assay [2] concerns the target T2, native recombinant human IGF-1 (human, UniProt P05019 49-118).
T2 construct: In the ELISAs it was biotinylated and held on streptavidin plates; also called native IGF-1; native human IGF-1 (Peprotech)
Kind of assay: SPR kinetics at 37 °C, clone culture supernatant, IGF-1 as analyte.

For assay [3], the target named is T1, Thermus thermophilus SlyD-IGF-1(74-90) …. Kind of assay: SPR at 37 °C, clone culture supernatant antibody captured.
Assay [4] concerns the target T2, native recombinant human IGF-1. The assay is described as above.
Assay [5] addresses T1, Thermus thermophilus SlyD-IGF-1(74-90) …. Kind of assay: SPR at 25 °C, mAb captured, antigen as analyte.

B1: <IGF-1>M-11.11.17 (antibody, V domains shown)
VH: QVQLQQSGAELVRPGSSVKISCKASGYAFSNLWMNWVKQRPGQGLEWIGQIYPGDGDTNYYGDFKGKATLTADSSSSTAYMQLSRLTSEDSAVYFCARIGYYGMDYWGQGTSVTVSS
VL: DVVLTQTPLSLPVNIGDEASISCKSTKSLLSSDGLTYLDWYLQKPGQSPQVLIYLVSNRFSGVPDRFSGSGSGTDFTLKISRVEAEDLGVYYCFQSNYLPTFGAGTKLELK
As a reminder, the Kd is the constant that tells how readily two partners part at equilibrium. A word on the koff: it is the rate constant with which the complex falls apart. What is called kon is the rate constant with which the complex forms. B1 displayed a reactivity in assay [1] of 2150 mE. For the same molecule, in assay [2], the Ka turned out to be 2.2e+10 M⁻¹, the Kd came out at 0.046 nM, the koff stood at 0.00014 s⁻¹ and the kon was 3.1e+06 M⁻¹ s⁻¹. In assay [3], the koff stood at 1e-05 s⁻¹. In assay [4], the koff is 1e-05 s⁻¹. In assay [5], the Kd came to 0.01 nM, the koff came to 1e-05 s⁻¹ and the kon was 710000 M⁻¹ s⁻¹.
